The values that follow come from patent publication US20210108176A1 (IMPERIAL COLLEGE INNOVATIONS, published 2021).

The target of this test is T1, EZH2 (UniProt Q15910 1-746, limits assumed).
T1 construct: Endogenous protein immunoprecipitated from U266 cell chromatin; also called polycomb complex methyl-transferase EZH2
Put plainly: ChIP-reChIP qPCR in U266 cells (IP against RARalpha, then EZH2). The method, then: Chromatin immunoprecipitation (ChIP) combined with real-time quantitative polymerase chain reaction (ChIP-RQ-PCR) was performed for anti-H3K4me3, anti-H3K27me3, anti-RNA polymerase II CTD phospho Ser2, anti-RNA polymerase II CTD phospho Ser5, anti-EZH2, anti-RARα and control IgG as previously described²⁵. For Re-ChIP assays, the wash and chromatin elution steps of the first IP were performed with protease inhibitor-containing buffers and the first elution was performed by incubating the magnetic beads in 10 mM DTT/TE for 30 min at 37° C. The eluate of the first IP was diluted at least 20× in ChIP dilution buffer, followed by a second IP according to the same protocol as above. Expression of immunoprecipitated DNA was calculated, either relative to input DNA or DNA immunoprecipitated by control IgG antibody, using the ΔΔCT method.
A general note: Quantitative PCR measures a nucleic acid by following its amplification.

T1 sequence (Q15910 whole entry): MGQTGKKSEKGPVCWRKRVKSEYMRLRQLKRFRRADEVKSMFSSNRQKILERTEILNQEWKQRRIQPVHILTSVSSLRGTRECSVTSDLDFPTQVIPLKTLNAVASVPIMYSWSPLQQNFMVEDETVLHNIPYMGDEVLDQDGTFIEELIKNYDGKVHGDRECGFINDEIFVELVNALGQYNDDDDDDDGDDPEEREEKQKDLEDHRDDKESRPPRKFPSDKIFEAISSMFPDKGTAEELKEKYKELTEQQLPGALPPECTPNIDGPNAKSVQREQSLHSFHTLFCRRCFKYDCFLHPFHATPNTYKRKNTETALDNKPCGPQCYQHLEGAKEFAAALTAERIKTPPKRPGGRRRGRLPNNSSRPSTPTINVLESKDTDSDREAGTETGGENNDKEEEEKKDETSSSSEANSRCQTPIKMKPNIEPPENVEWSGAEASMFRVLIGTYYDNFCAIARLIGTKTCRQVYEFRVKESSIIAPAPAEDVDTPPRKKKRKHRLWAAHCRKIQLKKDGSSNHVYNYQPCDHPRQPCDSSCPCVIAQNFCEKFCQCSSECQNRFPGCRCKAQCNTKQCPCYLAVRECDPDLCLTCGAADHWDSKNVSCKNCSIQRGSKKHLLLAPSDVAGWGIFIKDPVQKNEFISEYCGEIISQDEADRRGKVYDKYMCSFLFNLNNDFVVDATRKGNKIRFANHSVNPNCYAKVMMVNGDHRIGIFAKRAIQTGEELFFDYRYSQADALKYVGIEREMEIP

B1: RARalpha (receptor, UniProt P10276 1-462, looked up)
chain: MASNSSSCPTPGGGHLNGYPVPPYAFFFPPMLGGLSPPGALTTLQHQLPVSGYSTPSPATIETQSSSSEEIVPSPPSPPPLPRIYKPCFVCQDKSSGYHYGVSACEGCKGFFRRSIQKNMVYTCHRDKNCIINKVTRNRCQYCRLQKCFEVGMSKESVRNDRNKKKKEVPKPECSESYTLTPEVGELIEKVRKAHQETFPALCQLGKYTTNNSSEQRVSLDIDLWDKFSELSTKCIIKTVEFAKQLPGFTTLTIADQITLLKAACLDILILRICTRYTPEQDTMTFSDGLTLNRTQMHNAGFGPLTDLVFAFANQLLPLEMDDAETGLLSAICLICGDRQDLEQPDRVDMLQEPLLEALKVYVRKRRPSRPHMFPKMLMKITDLRSISAKGAERVITLKMEIPGSMPPLIQEMLENSEGLDTLSGQPGGGGRDGGGLAPPPGSCSPSLSPSSNRSSPATHSP
notes: Endogenous protein immunoprecipitated from U266 cell chromatin
B1: the binding result is reported as “binds”.
